Reference: PMC10238420, “Altered Signaling and Desensitization Responses in PTH1R Mutants Associated with Eiken Syndrome” (Communications Biology, 2023)

Experiments:
[1] = molecular target: PTH1R-E35K (human PTH1R with an HA tag) (human) (UniProt Q03431); assay: radioligand binding; total binding of ^125I-PTHrP(1-36) (20,000-30,000 cpm/well) to confluent monolayers of intact, transiently transfected Gs22a cells in 96-well plates; HB (Hanks balanced salt solution, 10 mM HEPES pH 7.4, 0.1% BSA); one hour at room temperature
[2] = molecular target: PTH1R-Y134S (human PTH1R with an HA tag) (human) (UniProt Q03431); assay: as above
[3] = molecular target: PTH1R-R485X (human PTH1R with an HA tag, C-terminal tail truncated at R485) (human) (UniProt Q03431)
[4] = molecular target: human PTH1R-WT with an HA tag (parathyroid hormone receptor type 1) (human) (UniProt Q03431)

Sequence of β-arrestin2-renilla luciferase (rLucII) (P32121 whole entry): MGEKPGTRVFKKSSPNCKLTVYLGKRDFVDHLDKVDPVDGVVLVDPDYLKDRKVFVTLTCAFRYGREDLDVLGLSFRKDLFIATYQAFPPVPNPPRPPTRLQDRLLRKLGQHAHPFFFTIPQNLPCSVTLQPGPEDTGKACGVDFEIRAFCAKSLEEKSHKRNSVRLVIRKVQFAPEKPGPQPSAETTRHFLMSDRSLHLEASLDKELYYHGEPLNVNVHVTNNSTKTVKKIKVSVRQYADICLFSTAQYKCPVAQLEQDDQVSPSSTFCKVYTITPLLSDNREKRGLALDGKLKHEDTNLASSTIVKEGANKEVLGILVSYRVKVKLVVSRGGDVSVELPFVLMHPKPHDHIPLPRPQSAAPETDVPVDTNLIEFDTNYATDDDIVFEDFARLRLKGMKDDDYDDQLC
Sequence of ^125I-PTHrP(1-36) (peptide) (P12272 37-72): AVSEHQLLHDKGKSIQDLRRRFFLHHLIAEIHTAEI

Substance	reduction of total binding relative to PTH1R-WT [1]	reduction of total binding relative to PTH1R-WT [2]	PTH(1-34)-induced recruitment of β-arrestin2^rLucII to endosomes (BRET with rGFP-FYVE), fold-BRET increase from baseline [3]	PTH(1-34)-induced recruitment of β-arrestin2^rLucII to the plasma membrane (BRET with rGFP-CAAX), fold-BRET increase from baseline [3]	PTH(1-34)-induced recruitment of β-arrestin2^rLucII to endosomes (BRET with rGFP-FYVE), fold-BRET increase from baseline [4]	PTH(1-34)-induced recruitment of β-arrestin2^rLucII to the plasma membrane (BRET with rGFP-CAAX), fold-BRET increase from baseline [4]
^125I-PTHrP(1-36) (peptide)	50%	50%	–	–	–	–
β-arrestin2-renilla luciferase (rLucII) (from UniProt P32121 1-409) (natural protein)	–	–	1.33 fold	2.69 fold	6.08 fold	4.79 fold
